From patent US20190367592A1 (AC IMMUNE, published 2019) come the findings set out here.

In assay [1] the target is T1, recombinant human Tau monomer, 2N4R isoform (amino acids 2-441) (human, UniProt P10636-8 2-441).
T1 construct: range 2-441; N-terminal His-tag removed with TEV protease; also called monomeric Tau
Nature of the assay: SPR, hIgG captured, Tau monomer analyte; stressed sample.

The target of assay [2] is T1, recombinant human Tau monomer, 2N4R …. Nature of the assay: SPR, hIgG captured, Tau monomer analyte; control sample. Background: SPR reads the build-up and loss of mass on a sensor chip optically.
The target is the same in assay [3]. Nature of the assay: SPR, hIgG captured, Tau monomer analyte; unstressed sample. As for the experimental part: To assess the impact of N²⁸ deamidation on the affinity for human Tau, it was desirable to obtain two samples with widely separated N²⁸ deamidation status. Hu37D3-H9.v5 hIgG4.S228P was incubated at 40° C. for two weeks at a concentration of 1 mg/ml in Phosphate Buffered Saline, pH 7.4. Deamidation of the N²⁸G2⁹ motif was measured using LC-MS/MS. […] The stressed and unstressed antibodies were analyzed for Tau binding by surface plasmon resonance (Biacore) using the GE Biacore human IgG capture kit and a Series S CM5 chip. The hIgG were diluted to 2 μg/ml in 10 mM HEPES pH7.4, 150 mM NaCl, 0.05% Tween 20 (running buffer, HBSP) and captured at a flow rate of 10 μl/min for 15 seconds (t0 sample) or 17 seconds (t2 sample). […] Between cycles the surface was regenerated using a 30 second injection of 3M Magnesium Chloride at 10 μl/min. A 1:1 binding model was fitted to the data using instrument defaults, including local fitting of the “RI” parameter.

Assay [4] has the same target. Briefly: SPR, hIgG captured, Tau monomer analyte, 1:1 fit.
Assay [5] has the same target. Nature of the assay: SPR single-cycle, Tau monomer amine-coupled, Fab analyte; Fab, not IgG; Tau monomer on the chip. The protocol: (§1) Human monomer Tau protein was covalently coupled to a Biacore Series S CM5 chip using the Biacore Amine Coupling Kit (GE Life Sciences), resulting in immobilization to a level of approximately 128 RU. Direct binding of 37D3-H9 in both Fab and IgG formats was monitored using the single-cycle kinetics experimental format with five association periods of 300s each and antibody concentrations of 1, 2, 4, 8 and 16 nM (IgG) or 5, 10, 20, 40 and 80 nM (Fab). Dissociation was monitored for 7200 seconds (Fab) or for 14400 seconds (IgG). A value for the dissociation rate was calculated by fitting a 1:1 binding model to the data.

In a further assay the target is T2, Tau fragment 28-42 (human, UniProt P10636-8 28-42, not fully specified).
T2 construct: range 28-42
T2 peptide (looked up): GYTMHQDQEGDTDAG
Briefly: ELISA on Tau 15-mer peptides, O.D.; conditions of this panel not given. For orientation: ELISA stands for enzyme-linked immunosorbent assay.

The next assay concerns the target T3, MAPT(10-24) (human, also: biotinylated, site not given here).
T3 construct: also called Tau fragment 10-24
T3 peptide: VMEDHAGTYGLGDRK
The assay is described as above.

In a further assay the target is T4, Tau fragment 19-33 (human, UniProt P10636-8 19-33, not fully specified).
T4 construct: range 19-33
T4 peptide (looked up): GLGDRKDQGGYTMHQ
The assay is described as above.

Another assay addresses T5, Tau fragment 37-51 (human, UniProt P10636-8 37-51).
T5 construct: range 37-51
T5 peptide (looked up): GDTDAGLKESPLQTP
The assay is described as above.

A further assay has as its target T6, Tau fragment 1-15 (human, UniProt P10636-8 1-15).
T6 construct: range 1-15
T6 peptide (looked up): MAEPRQEFEVMEDHA
Described as above.

Assay [6] addresses T1, recombinant human Tau monomer, 2N4R …. Nature of the assay: SPR, mIgG2a captured, Tau monomer analyte, 1:1 fit. A digest of the protocol: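 Antibodies in mIgG2a format captured on anti-mouse IgG surface at 1 μg/ml (30 or 45 s) or 0.1 μg/ml (70 or 150 s), 10 μl/min, in HBSP (10 mM HEPES pH7.4, 150 mM NaCl, 0.05% Tween 20). Tau monomer flowed as analyte; association 180-480 s, dissociation 300-600 s, 1:1 fit.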
Target sequence in this assay (P10636 other isoform, or with tags, fused parts or gaps limits assumed): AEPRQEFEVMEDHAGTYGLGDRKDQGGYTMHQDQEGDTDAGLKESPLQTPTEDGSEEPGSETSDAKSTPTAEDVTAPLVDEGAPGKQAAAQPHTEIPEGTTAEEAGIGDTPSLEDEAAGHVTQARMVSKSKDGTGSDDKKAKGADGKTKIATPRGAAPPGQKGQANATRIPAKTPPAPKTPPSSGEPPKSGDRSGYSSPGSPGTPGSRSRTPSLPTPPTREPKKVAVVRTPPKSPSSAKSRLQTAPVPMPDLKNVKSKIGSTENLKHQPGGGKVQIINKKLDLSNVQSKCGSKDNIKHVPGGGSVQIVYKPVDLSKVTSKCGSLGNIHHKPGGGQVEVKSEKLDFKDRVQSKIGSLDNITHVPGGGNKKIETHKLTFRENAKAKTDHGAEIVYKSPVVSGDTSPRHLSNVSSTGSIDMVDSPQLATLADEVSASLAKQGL

The next assay addresses T7, Tau fragment 8-22 (human, UniProt P10636-8 8-22).
T7 construct: range 8-22
T7 peptide (looked up): FEVMEDHAGTYGLGD
Nature of the assay: 15mer offset peptides.

Another assay has as its target T8, Tau fragment 11-25 (human, UniProt P10636-8 11-25, not fully specified).
T8 construct: range 11-25
T8 peptide (looked up): MEDHAGTYGLGDRKD
Nature of the assay: 15mer offset peptides.

In a further assay the target is T9, Tau fragment 9-23 (human, UniProt P10636-8 9-23).
T9 construct: range 9-23
T9 peptide (looked up): EVMEDHAGTYGLGDR
Briefly: 15mer offset peptides.

The target in the next assay is T10, Tau fragment 7-21 (human, UniProt P10636-8 7-21).
T10 construct: range 7-21
T10 peptide (looked up): EFEVMEDHAGTYGLG
Briefly: 15mer offset peptides.

In a further assay the target is T11, Tau fragment 2-21 Y18A (human, UniProt P10636-8 2-21).
T11 construct: range 2-21
T11 peptide (looked up): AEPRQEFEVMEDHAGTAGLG
Nature of the assay: alanine scanning of Tau fragment 2-21.

The target of another assay is T12, Tau fragment 2-21 L20A (human, UniProt P10636-8 2-21).
T12 construct: range 2-21
T12 peptide (looked up): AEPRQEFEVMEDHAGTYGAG
Nature of the assay: alanine scanning of Tau fragment 2-21.

Assay [7] addresses T1, recombinant human Tau monomer, 2N4R …. Nature of the assay: SPR single-cycle, Tau monomer amine-coupled, IgG analyte; IgG (bivalent, avidity); Tau monomer on the chip. As for the experimental part:
as §1

The next assay concerns the target T13, MAPT(2-24) (human, biotinylated).
T13 construct: also called Tau fragment 2-24
T13 peptide: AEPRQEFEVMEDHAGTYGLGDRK
Briefly: ELISA, biotinylated peptide on Neutravidin plate, IgG titrated, A450 nm. As for the experimental part: (§2) Following a comparison of 37D3-H9 binding to biotinylated Tau monomer and biotinylated peptide (MAPT_10-24), binding of 37D3-H9 to additional biotinylated peptides was also assessed. Nunc maxisorp 96-well microplates were coated at 4° C. for >12 hours with Neutravidin diluted to 2 μg/ml in 50 mM Sodium Carbonate Buffer, pH 9.6. All subsequent incubations were performed at room temperature. After coating, plates were blocked with Superblock™ (PBS) Blocking Buffer (Thermo Fisher Scientific) for two hours then washed thoroughly with PBS, 0.05% Polysorbate 20. Wells were then exposed to biotinylated Tau peptides (Table 20) or Avi-tag biotinylated Tau monomer at 1 μg/ml for one hour and washed as previously. Peptides were synthesized using standard solid-phase Fmoc chemistry (see, e.g., Fmoc solid phase peptide synthesis: A practical approach; Chan, W. C., White, P. D., Eds.; Oxford University Press: New York, 2000). Antibodies 37D3-H9 mIgG2a and hu37D3-H9.v5 hIgG1, serially diluted from 500 nM to 50 pM in 90% Superblock™ (PBS) Blocking Buffer, were allowed to bind biotinylated-Tau coated wells for 90 minutes. Wells were washed as previously and bound antibody detected with peroxidase-conjugated secondary antibody (Invitrogen/Life Technologies) diluted 1/1000 in Superblock™ Blocking Buffer (Rabbit anti-Mouse IgG or Goat Anti-Human IgG (H+L) respectively). After twenty minutes wells were washed as previously and signal developed with TMB Microwell 2-Component Substrate (KPL). Reactions were stopped by addition of 1M Phosphoric Acid and absorbance at 450 nm was measured with a SpectraMax M2 platereader.

In the next assay the target is T14, MAPT(2-34) (human, biotinylated).
T14 construct: also called Tau fragment 2-34
T14 peptide: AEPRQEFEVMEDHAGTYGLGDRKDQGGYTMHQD
The assay is described as above. As for the experimental part: as §2

The target of assay [8] is T1, recombinant human Tau monomer, 2N4R …. Nature of the assay: SPR single-cycle, Tau monomer amine-coupled. As for the experimental part: as §1
For assay [9], the target named is T15, full-length human Tau (flTau) (human, UniProt P10636-8 1-441).
T15 construct: range 1-441; bought (SignalChem); also called human Tau-441
Nature of the assay: SPR, hybridoma Ab on anti-IgG chip, flTau analyte. A digest of the protocol: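 Unpurified antibodies from serum-free hybridoma supernatants were captured on an anti-IgG SPR chip (Biacore T-100), and flTau was flowed as analyte. KD was obtained from kinetic analysis with a 1:1 Langmuir fit.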

Numbering of substitutions follows the chain as printed. Numbers in names are those of the source. Where no end group is shown, it is not given here.

T15 sequence (P10636 other isoform, or with tags, fused parts or gaps limits assumed): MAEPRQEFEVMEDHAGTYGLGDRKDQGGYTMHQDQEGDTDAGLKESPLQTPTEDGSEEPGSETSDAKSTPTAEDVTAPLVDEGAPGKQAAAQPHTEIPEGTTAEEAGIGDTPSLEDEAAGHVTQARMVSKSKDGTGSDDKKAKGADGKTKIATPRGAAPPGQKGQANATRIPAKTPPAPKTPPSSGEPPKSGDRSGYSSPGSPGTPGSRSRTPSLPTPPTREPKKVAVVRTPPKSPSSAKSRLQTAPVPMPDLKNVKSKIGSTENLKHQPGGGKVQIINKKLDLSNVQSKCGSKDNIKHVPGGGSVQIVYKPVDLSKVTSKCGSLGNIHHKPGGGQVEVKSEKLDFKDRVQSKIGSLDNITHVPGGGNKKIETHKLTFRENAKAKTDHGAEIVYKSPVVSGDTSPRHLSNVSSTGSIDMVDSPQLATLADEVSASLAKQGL

B1: hu37D3-H9.v5 hIgG4.S228P (antibody, V domains shown)
VH: EVQLVESGGGLVQPGGSLRLSCAASGLIFRSYGMSWVRQAPGKGLEWVATINSGGTYTYYPDSVKGRFTISRDNSKNTLYLQMNSLRAEDTAVYYCANSYSGAMDYWGQGTLVTVSS
VL: EDVLTQTPLSLPVTPGQPASISCRSSQSIVHSNGNTYFEWYLQKPGQSPQLLIYKVSNRFSGVPDRFSGSGSGTDFTLKISRVEAEDVGVYYCFQGSLVPWTFGQGTKVEIK
notes: human IgG4 S228P, kappa; the t = 2 weeks sample is partly deamidated at light chain N28
As to B1, the dissociation constant Kd came to 1.5 nM in [1], 1.5 nM in [2], 0.7 nM in assay [3] and 1.3 nM in assay [4]. Besides, the koff in assay [4] is 0.0009 s⁻¹. Further, in assay [4], the kon came to 710000 M⁻¹ s⁻¹.

B2: 37D3-H9 Fab (Fab, V domains shown)
VH: EVQLVESGGDLAKPGGSLKLSCTASGLIFRSYGMSWVRQTPDKRLEWVATINSGGTYTYYPDSVKGRFTISRDNAKNTLYLQMSSLKSEDTAMYYCANSYSGAMDYWGQGTSVTVSS
VL: B1 VL with E1D, V3L, T14S, P15L, Q17D, Q50K, V88L, Q105G, V109L
notes: Fab format
Consider B2, for which the koff in [5] was 0.0005 s⁻¹.

B3: 37D3-H9 (antibody, mouse IgG2a, V domains shown)
VH: B2 VH
VL: B1 VL with E1D, V3L, T14S, P15L, Q17D, Q50K, V88L, Q105G, V109L
notes: also called 37D3-H9 mIgG2a; 37D3-H9 IgG
In the case of B3, the binding result in the assay with Tau fragment 28-42 was “no binding (tested: not given)”; with MAPT(10-24), “binds”; in the assay with Tau fragment 19-33 it was “no binding (tested: not given)”; with Tau fragment 37-51, “no binding (tested: not given)”; with Tau fragment 1-15, “no binding (tested: not given)”; with Tau fragment 8-22, “binds”. In addition, the binding result was “binds” with Tau fragment 11-25; “binds” with Tau fragment 9-23; “binds” with Tau fragment 7-21; “no binding” with Tau fragment 2-21 Y18A; “no binding” with Tau fragment 2-21 L20A; “binds” with MAPT(2-24). Also, the binding result with MAPT(2-34) was “binds”. Besides, the dissociation constant (Kd) in assay [6] was 1.6 nM; in assay [9], 1 nM. Also, the koff in assay [6] came to 0.0001 s⁻¹; in assay [7], 1.1e-05 s⁻¹. Also, in assay [6], the on-rate (kon) worked out at 100000 M⁻¹ s⁻¹. Moreover, in assay [8], the “fold difference in dissociation rate, Fab against IgG” value was determined as 45 fold.

A word on the Kd: it is the equilibrium constant for the complex coming apart. By koff is commonly meant a measure of how fast the partners let go of each other. In general, kon refers to a measure of how fast the partners come together.
